Here are results for two variants from IntAct's records for PubMed 33452816.

Sequences and labels used below:
B1: Pleckstrin homology domain-containing family M member 1 (Homo sapiens), Q9Y4G2 (parent)
chain: MLSVVENGLDPQAAIPVIKKKLVGSVKALQKQYVSLDTVVTSEDGDANTMCSALEAVFIHGLHAKHIRAEAGGKRKKSAHQKPLPQPVFWPLLKAVTHKHIISELEHLTFVNTDVGRCRAWLRLALNDGLMECYLKLLLQEQARLHEYYQPTALLRDAEEGEFLLSFLQGLTSLSFELSYKSAILNEWTLTPLALSGLCPLSELDPLSTSGAELQRKESLDSISHSSGSEDIEVHHSGHKIRRNQKLTASSLSLDTASSSQLSCSLNSDSCLLQENGSKSPDHCEEPMSCDSDLGTANAEDSDRSLQEVLLEFSKAQVNSVPTNGLSQETEIPTPQASLSLHGLNTSTYLHCEAPAEPLPAQAASGTQDGVHVQEPRPQAPSPLDLQQPVESTSGQQPSSTVSETAREVGQGNGLQKAQAHDGAGLKLVVSSPTSPKNKSWISEDDFYRPSREQPLESASDHPIASYRGTPGSRPGLHRHFSQEPRKNCSLGALDQACVPSPGRRQAQAAPSQGHKSFRVVHRRQMGLSNPFRGLMKLGTVERRGAMGIWKELFCELSPLEFRLYLSNEEHTCVENCSLLRCESVGPAHSDGRFELVFSGKKLALRASSQDEAEDWLDRVREALQKVRPQQEDEWVNVQYPDQPEEPPEAPQGCLSPSDLLSEPAALQGTQFDWSSAQVPEPDAIKESLLYLYMDRTWMPYIFSLSLEALKCFRIRNNEKMLSDSHGVETIRDILPDTSLGGPSFFKIITAKAVLKLQAGNAEEAALWRDLVRKVLASYLETAEEAVTLGGSLDENCQEVLKFATRENGFLLQYLVAIPMEKGLDSQGCFCAGCSRQIGFSFVRPKLCAFSGLYYCDICHQDDASVIPARIIHNWDLTKRPICRQALKFLTQIRAQPLINLQMVNASLYEHVERMHLIGRRREQLKLLGDYLGLCRSGALKELSKRLNHRNYLLESPHRFSVADLQQIADGVYEGFLKALIEFASQHVYHCDLCTQRGFICQICQHHDIIFPFEFDTTVRCAECKTVFHQSCQAVVKKGCPRCARRRKYQEQNIFA

Variants of B1 are the subject of assay [1]. The note with it: with rab7a_canlf RAB7A.
Assay [2] covers variants of B1. The settings on record: with gbrap_human GABARAP.

Turning to S432D;S435D, the “effect of a mutation on the interaction” value in assay [1] and in assay [2] was “with no effect” in each case.
With S432A;S435A, the “effect of a mutation on the interaction” value in assay [1] and in assay [2] was “with no effect” throughout.
